Test: label from the status in PepcDB records

Row | Sequence | protein production
1 | MAFRMSEQPRTIKIYNLLAGTNEFIGEGDAYIPPHTGLPANSTDIAPPDIPAGFVAVFNSDESSWHLVEDHRGKTVYDVASGDALFISELGPLPENVTWLSPEGEFQKWNGTAWVKDTEAEKLFRIREAEETKNNLMQVASEHIAPLQDAADLEIATEEEISLLEAWKKYRVLLNRVDTSTAQDIEWPALP | not failed
2 | MTNAIQDRLPRTTNSVEDTMALGARIAQGLSPGAVVALYGDLGTGKTHFVKGVAQGLGLPPAEVRSPTFTILAVHDDGDRPLYHFDAYRVQTPDEFVELGFETYVHGDGLTCIEWAGRVADLLPADTVPLQFHHVAPSTRRITLGAPLEHHHHHH | not failed
3 | MIFMGNKVKYNLKNVHAAKLTETDSDGTTTFSYAEPKAIPGAVSISLDAEGETSPFYADGIVYFRSVTNNGYSGDLEIALIPEWFRTEILQEKLDAKGVLVENSGVGESVKFALLFEFDGDVNAIRHVLYNCSASRPSIESETKEDTIEPGTETLSITADPRSDGLVKARTGDTTDSGTYTNWYKAVYTPTEEEPEETSGEDESV | failed
4 | MSTATLSGQSPSAQRRPMTREERRVIFASSLGTVFEWYDFYLYGSLAAIIAQHFFSGVNPTAAFIFALLAFAAGFAVRPFGALVFGRLGDLVGRKYTFLITIVIMGLSTFLVGVLPSYASIGIAAPAILIILRLLQGLALGGEYGGAATYVAEHAPHGRRGFYTSWIQTTATLGLFLSLLVILGVRTFMGEEAFKDWGWRIPFLISVVLLGISVWIRLQLNESPTFKRMKEEGKGSKAPIAESFGQWRNLKVVILALLGLTAGQAVVWYTGQFYALFFLTQSLKIDSNTANIMIAIALLVGTPFFVLFGALSDRIGRKPIIMAGCLIAALTYFPIFKGLTHYANPALEKAQATAPVTVIADPATCSFQFNPVGTASFTSSCDVVKSFMARNSVNYENQSAAAGSVAKVMIGNDEFASFDGKGLAPAEFKTKATELDKALTAAIRSHGYPAKADPAQTNYFMVVVLLTLLVIYVTMVYGPIAAMLVEMFPTRIRYTSMSLPYHIGNGWFGGFLPPVAFAVVAATGNIYDGLWYPIIIAVMTLVIGTLFVRETKDNDINA | not failed
5 | LQPNMRTRVCTVINNNIAHEWTLARIASELLMSPSLLKKKLREEETSYSQLLTECRMQRALQLIVIHGFSIKRVAVSCGYHSVSYFIYVFRNYYGMTPTEYQERSAQRLSNRDSAAS | not failed
6 | AHHDEVLDIPKGVEVYEIEGPFFFGIANRFEEIMNTLGDHPDVRIIRMRHVPFMDSTGMHNLENLIKMSRKEGVSIVLSGVRKDVHEELATAGIVELLGEENVCADIQAALRQAQAIAQGA | failed
7 | MQFPSIEDLRARNTMKWTRYGQGVLPLWVAESDFSTCPAVLQAITDAVQREAFGYQPDGSLLSQATAEFYADRYGYQARPEWIFPIPDVVRGLYIAIDHFTPAQSKVIVPTPAYPPFFHLLSATQREGIFIDATGGINLHDVEKG | failed
8 | MKTREYYVAAAAGLIGGNVSSFVKWGTEIPFPPRTPDRPIPPLEMLDSLGINANQLTYVYSEHMVNYGSALIHQSFSIFFAIFYCLTALRYPRVAVWQGFGFGMLVTLAFHGVLLPMFHWAPPLWELPPAEWASETFGHLLWIWVIEVIRRDLQQRWSPGPG | failed
9 | MPAKPIDLGPMHFEKKEDAVAYLHKMLHRYDLGDKVSDDDAIILRAALAHHRDAEVKVGCGITYFSVRTADFGTRCFWLNRNDGTTEKFSHKTCIYSTLEHHHHHH | not failed
10 | MRTLGIIGFGGFGQFMVKHLQPYISVTVHDLTDLSHIAAEHKVEWGTLQETASKDIVILAVPVQFLESLLLEIKDYLKAEALIVDVSSVKVKPIELMLKHLPLTVDILGTHPLFGPQSGKNGIKGLNMVVCPVRSKKMRAITHFLRNVIQLNVLERTPETHDKQMAYVQALTHFIGRSINEMDIPDVEQKTPAYQYLLDIKRNLGGDSMDLFLTIELENPYAKKVREEFMGALKSLNDRLEHIKR | failed
11 | TIDPKAQKAAWDGLTDLKGARGAVVALDPQTGKVLAMVSAPSYDPSAFAGSTFKESDRFVELDKKKNKPLANRALRETYPPGSTFKILTAAAALEHGIVTDVDARTDAVSPYPLPQSTNKIGSEAGDAVCNKASMKTAMQHSCNNVFLDAASKLGQDKMRETAEKFGFNEDVYSDDFGDLLATKSLYPEDLDKPGTALTGMGQGSLTSTPMQMALVTAGIANDGKVMQPYVVDEVKGPDLDTLEKTEPAVMSEAVSAETAQKVQEMMEFTAKEGSARRAQIDGITVGGKTGTAQRGVDVNDEVPYGWFVSYGKKDDGSSVAVAVFIDPTDMDISRADISGGGLGAPIAKSVMKAVLK | failed
12 | MTMPIFNISDDVDLVPAMPAEGRDGGSYRRQIWQDDVENGTIVAVWMAEPGIYNYAGRDLEETFVVVEGEALYSQADADPVKIGPGSIVSIAKGVPSRLEILSSFRKLATVIPKP | not failed
13 | VDCIGCRKCEEVCLSDALDIMGKDVSVSELMDIIMQDYDFYISSGGGVTIGGGEMSLQTDFAVALLRECKKMMINTAVETQATTNVANYEKLAQVVDQFLIDIKHIDTTQHKALFGIGNENVRRNLERLMDLGANVVIRMPLVRGYNDSYDAITGAINYAMALSKRGNLQRIDILPYHQFGRN | failed
14 | MFHVSFRYIFGLPPLILVLLPVASSDCDIEGKDGKQYESVLMVSIDQLLDSMKEIGSNCLNNEFNFFKRHICDANKEGMFLFRAARKLRQFLKMNSTGDFDLHLLKVSEGTTILLNCTGQVKGRKPAALGEAQPTKSLEENKSLKEQKKLNDLCFLKRLLQEIKTCWNKILMGTKEH | failed
15 | MAMLQTNLGFITSPTFLCPKLKVKLNSYLWFSYRSQGNFSYSLYTFKPMNLWFVQKLDFSKRVNRSYKRDALLLSIKCSSSTGFDNSNAVNSNVVVKEKSVSVILLAGGQGKRMKLCFWLRDVPKISLSLFLFCGVLEYEESIDVDLRFAIPGKERQDSVYSGLQEIDVNSELVCIHDSARPLVNTEDVEKVLKDGSAVGAAVLGVPAKATIKEVIKPELLKKGFELVKSEGLEVTDDVSIVEYLKHPVYVSQGSYTNIKVTTPDDLLLAERILSEDS | failed
16 | MDAVVVLCYLLLALPTIIPSVVDGKWLVVAILLLIAIALFFRRPFPLQVVLAVSLLEIAATILNPWGSNVSAGLWFALYAVASLRKRALALVVFAVASLPLSLLYLFMWTSPSEMDNLQDVPENFHLINNIATAVTIMLSNLLATGIGISVRQRREHEAEIAAWAARTTQLGKVTERNRIAREMHDVVAHSLTVMISLSDGAAVVVKKDPERAGDVLGELSRTGRAALADMRRVLGVLRDDSGRPAPLTPLESGQNLAKLLDGFRTAGLPLHYAHTGPGLPADPAFELTVYRIVQESLTNVLRYGRSLSRVDVQVARDGDLVTIDVLDDGRGTREGGSESVGSLGTGQGIAGMNERAGIYAGIVTAGPGKRGGWAVHAELRWNGEKGES | failed
17 | MNPKKLAFYLWLLLVAGGITAYFLYPDEINILFLEDLSEEYYYVALIIYFLLLSARGLTMIPSTPLLLAGVLTFDPLELFIVNMAGILSSSTIVYYFSKFLGFDSYFETKHGKYVRKIRRGLTDKELPVIVGWSFFPLVPTDLIVYVGSSLKIPLLKCLLGVFVGESVLNAFYIFSTNLILKL | failed
18 | VFHPVECSYCHSESMMGFRYRCQQCHNYQLCQDCFWRGHAGGSHSNQHQMKEYTSW | not failed
19 | YTCSFVGHFSAGKSTLINLLIEQDILPSSPVPTTSNTAIVSVSDNHDIIANLPNQTYAKLSNYDEVREMNRQNVDVESVEINFQSAKFENGFTLQDTPGVDSNVASHQSITEQYMYTSNMIFYTVDYNHVQSELNFKFMKHINDVGIPVVFIINQIDKHQDDELS | failed
20 | DPQILTTPGRDIAELRRIAGRPLSVAIDFEGGRVLRHRGILGDFPSPQVMAQTMTPEQVRGMAYDMGRSLFAHGINVNFAPVVDIEAGLEVVGDRAFSPDPLIDATYATAFAQGMADAGVRPVLKHFPGHGRASGDSHTAQVHTPPLAELEKLDLIPYGRVP | failed
21 | MSLASNKKYTFACLLPKHLEGEYWTDVQKGIREAVTTYSDFNISANITHYDPYDYNSFVATSQAVIEEQPDGVMFAPTVPQYTKGFTDALNELGIPYIYIDSQIKDAPPLAFFGQNSHQSGYFAARMLMLLAVNDREIVIFRKIHEGVIGSNQQESREIGFRQYMQEHHPACNILELNLHADLNIEDSRMLDDFFREHPDVKHGITFNSKVYIIGEYLQQRRKSDFSLIGYDLLERNVTCLKEGTVSFLIAQQPELQGFNSIKTLCDHLIFRKEVACTNYMPIDLLTKENIDYYHSEGHHHHHH | not failed
22 | MLCLHTSVHCYENPSVIFSLIYIIICKYMYYNILSATTIFILYSQIVGQNGDDIIKYYHSFLNYVIIFYMSRH | failed
23 | MPGITFKEDANERGRQIEHWPLLKNGSIFVIADDGTRYFQEDAKHRHGHVYTHGSWLIPMNNQHPYLIFDQTQYDAFKQEESQAGQLPYPKFMTKLVSAPTIAQLAAKLGVPANNLQQTVTDFNHYTEVGRDFEFGRDPQTMRQLDDGPYYAIAALEHHHHHH | not failed
24 | MSLKYQLRFGGEGGQGVITAGEILAEAAIKEGRQAFKASTYTSQVRGGPTKVDIIIDDKEILFPYAVEGEVDFMLSTADKGYKGFRGGVKEGGIIVVEPNLVHPESEDYKKWQIFEIPIITIAKDEVGNVATQSVVALAIAAYMSKCIDLDVLKETMLHMVPAKTRDANAKAFDLGVKYATQAKPHEGHHHHHH | not failed
25 | MQRGDISMTKRKDIHFRIEEKLLERFESALHYEGLKKTDVLTHAIQQFCMKVEYEKMNDVKRQYSVSNNLQTRIDTHKHYEEKQVNLDEIVIEHLQLQGRERILEVGCANGKFLSLLQANGHKGQLTGFDQSEAMLSEATKTNNLIEWRLGDAGKLPFEANYYDLIVARHMLYHMKDVEKTIQGFHKVIHPGGSLLATTNSNVTLPRIVEMCNRMLDTFDLPKTTSSVTPFCLENGKEILQSVFPTVEVSVIHNALVFHHATPIVNYISSMFPSLNIPDNTLLHAEMKDWLKEEVENELLLHNGIWRDPKTLAIYRCQKEKS | failed
26 | ITERKQIEEALQKSGQRLRMTLESTSTNWWERDLITDQADWSEQSDHLLGYTPDSYEKNQDTFYKLVHPDDREHVQAGVNLAIATGEPYQGEFRLVQADGNCIWILGTGHVEYNEAGQPVRMSGLNIN | failed
27 | MRPIPEGYEAVFETVVTPEMTVRFEELGPVHPVYATYWMVKHMELAGRKIILPFLEEGEEGIGSYVEARHLASALPGMRVRVVARHEKTEGNRVYARVEAYNELGDLIGVGRTEQVILPKAKVEALFRRLKERWEAERSPS | not failed
28 | MSETATWQPSASIPNLLKRAAIMAEIRRFFADRGVLEVETPCMSQATVTDIHLFPFETRFVGPGHSQGINLYLMTSPEYHMKRLLAAGCGPVFQLCRSFRNEEMGRHHNPEFTMLEWYRPHYDMYRLMNEVDDLLQQVLDCQPAESLSYQQAFQRHLEIDPLSADKTQLREAAAKLDLSNIADTEEDRDTLLQLLFTMGVEPHIGKEKPTFIYHFPASQASLAQISTEDHRVAERFEVYYKGIELANGFHELTDAREQQQRFEQDNRKRAARGLPQQPIDQNLLDALAAGLPDCSGVALGVDRLVMLALGAESLADVIAFTVDRA | not failed
29 | MKEDPRIIKTLSKLQKAFVMLLKTYDAGDINVRQISDEAGVTRGAFYSHFSDKKEFVNFTINELVGSLFNSSLKDSVGFVDEVNHKNAHGTNVLSVSNFFDKVAADYQTYTIVLDTEKLPQFTEVLKERLNSEIKTFAEYYGKKVKHDGFPIEVLSSYYVNGLIGMIRMWLDEGMVYTSHYMANAAKKILGTKIQIDSQNIDLSDFFVDLEHHHHHH | not failed
